Results taken from patent US20220251184A1.

What was measured:
[1] = target: human BMP6 (R&D Systems, Cat #507-BP) (human) (UniProt P22004); assay: SPR (MASS-1), mAb captured on anti-human Fc, hBMP6 in solution, 25 C
[2] = target: human BMP6 (R&D Systems, Cat #507-BP) (human) (UniProt P22004); assay: SPR (MASS-1), mAb captured on anti-human Fc, hBMP6 in solution, 37 C
[3] = target: mouse BMP6 (R&D Systems, Cat #6325-BM) (mouse) (UniProt P20722); assay: SPR (MASS-1), mAb captured on anti-human Fc, mBMP6 in solution, 25 C
[4] = target: mouse BMP6 (R&D Systems, Cat #6325-BM) (mouse) (UniProt P20722); assay: SPR (MASS-1), mAb captured on anti-human Fc, mBMP6 in solution, 37 C
[5] = target: human BMP6 (R&D Systems, Cat #507-BP) (human) (UniProt P22004); assay: SPR (Biacore 3000), premix of 400 nM mAb and 10 nM hBMP6 over immobilised hHJV-hFc (competitor), 25 C
[6] = target: human BMP6 (R&D Systems, Cat #507-BP) (human) (UniProt P22004); assay: SPR (Biacore 3000), blocking of hBMP6 binding to immobilised hHJV-hFc (competitor) by 400 nM mAb, 25 C
[7] = target: human BMP6 (R&D Systems, Cat #507-BP) (human) (UniProt P22004); assay: SPR (Biacore 3000), premix of 400 nM mAb and 10 nM hBMP6 over immobilised hActR2A-hFc (competitor), 25 C
[8] = target: human BMP6 (R&D Systems, Cat #507-BP) (human) (UniProt P22004); assay: SPR (Biacore 3000), premix of 400 nM mAb and 10 nM hBMP6 over immobilised hActR2B-hFc (competitor), 25 C
[9] = target: human BMP6 (R&D Systems, Cat #507-BP) (human) (UniProt P22004); assay: SPR (Biacore 3000), blocking of hBMP6 binding to immobilised hActR2A-hFc (competitor) by 400 nM mAb, 25 C
[10] = target: human BMP6 (R&D Systems, Cat #507-BP) (human) (UniProt P22004); assay: SPR (Biacore 3000), blocking of hBMP6 binding to immobilised hActR2B-hFc (competitor) by 400 nM mAb, 25 C

Sequence of human BMP6 (R&D Systems, Cat #507-BP) (human) (P22004 375-513 limits assumed): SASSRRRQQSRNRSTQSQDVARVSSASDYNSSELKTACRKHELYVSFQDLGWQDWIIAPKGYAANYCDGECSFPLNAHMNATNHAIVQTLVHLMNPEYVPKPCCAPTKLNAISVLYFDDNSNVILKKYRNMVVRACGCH
Sequence of mouse BMP6 (R&D Systems, Cat #6325-BM) (mouse) (P20722 372-510 limits assumed): as the sequence (P22004 375-513 limits assumed) above, with A21S, V23G, S25G, A26S, S31G, R39K counted along it

## Isotype Control mAb (antibody)
[1]
  60 nM hBMP6 Bound (RU): 2 RU
[2]
  60 nM hBMP6 Bound (RU): 2 RU
[3]
  60 nM mBMP6 Bound (RU): 3 RU
[4]
  60 nM mBMP6 Bound (RU): 3 RU
[5]
  400 nM mAb + 10 nM hBMP-6 Binding (RU): 299 RU
[6]
  % Blocking: 41%
[7]
  400 nM mAb + 10 nM hBMP-6 Binding (RU): 246 RU
[8]
  400 nM mAb + 10 nM hBMP-6 Binding (RU): 187 RU
[9]
  % Blocking: 43%
[10]
  % Blocking: 25%
